{
  "source": "patent US20190071668",
  "molecular_target": "T1, Androgen receptor (AR) (Homo sapiens?) (UniProt P10275)",
  "T1 sequence": "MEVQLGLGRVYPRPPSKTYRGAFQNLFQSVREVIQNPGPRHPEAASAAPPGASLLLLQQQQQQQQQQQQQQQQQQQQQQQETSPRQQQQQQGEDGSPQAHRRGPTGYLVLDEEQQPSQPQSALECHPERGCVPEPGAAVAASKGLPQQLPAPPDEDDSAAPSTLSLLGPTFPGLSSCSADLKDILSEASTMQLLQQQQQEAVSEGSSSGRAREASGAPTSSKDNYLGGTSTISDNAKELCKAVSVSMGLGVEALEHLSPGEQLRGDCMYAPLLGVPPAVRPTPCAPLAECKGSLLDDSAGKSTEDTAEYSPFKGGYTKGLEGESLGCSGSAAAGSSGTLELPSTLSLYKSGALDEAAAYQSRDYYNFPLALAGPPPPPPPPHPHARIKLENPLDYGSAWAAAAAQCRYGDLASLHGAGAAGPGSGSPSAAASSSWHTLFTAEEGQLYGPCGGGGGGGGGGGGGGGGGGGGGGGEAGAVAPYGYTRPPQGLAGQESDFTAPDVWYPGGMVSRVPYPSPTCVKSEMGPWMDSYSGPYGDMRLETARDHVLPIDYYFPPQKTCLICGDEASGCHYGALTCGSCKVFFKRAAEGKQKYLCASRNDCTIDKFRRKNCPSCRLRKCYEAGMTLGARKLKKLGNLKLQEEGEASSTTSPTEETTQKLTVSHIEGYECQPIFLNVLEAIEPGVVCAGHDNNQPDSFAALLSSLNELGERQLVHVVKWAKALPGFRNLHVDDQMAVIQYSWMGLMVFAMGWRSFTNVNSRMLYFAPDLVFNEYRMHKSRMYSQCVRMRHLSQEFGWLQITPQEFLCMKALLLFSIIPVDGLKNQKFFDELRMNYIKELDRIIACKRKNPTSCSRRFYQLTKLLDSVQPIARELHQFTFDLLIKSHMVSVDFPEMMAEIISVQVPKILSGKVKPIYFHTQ",
  "assay": "pulldown",
  "conditions": "RIP; not significantly above background SLNCR",
  "data": [
    {"substance": "SLNCR1 delta 568-637", "values": [
      {"measurement": "binding signal (fold enrichment)", "result": 14}
    ]}
  ]
}
